“Also recorded” adds a separate entry of the source. Where no end group is shown, it is not given here.
Key:
[1] = target: T1, DNA binding domain of recombinant rat androgen receptor (AR) / calreticulin (p60) (Homo sapiens, UniProt P27797); experiment: Gel mobility shift (gel retardation) assay: calreticulin (p60) inhibition of AR-ARE binding and its reversal by peptides/antibody; details: for Effectiveness of binding to calreticulin, in words: effect of substitution in KXFFX1R sequence, band shift; for Reversal of GST-calreticulin (recombinant calreticulin) inhibition of AR-ARE interaction: calreticulin 2 μg, peptides at 50-fold molar excess; for Reversal of p60 (calreticulin) inhibition of AR-ARE binding: peptide, antibody or IgG pre-incubated with p60
T1 construct: endogenous in cells
T1 sequence (P27797 18-417): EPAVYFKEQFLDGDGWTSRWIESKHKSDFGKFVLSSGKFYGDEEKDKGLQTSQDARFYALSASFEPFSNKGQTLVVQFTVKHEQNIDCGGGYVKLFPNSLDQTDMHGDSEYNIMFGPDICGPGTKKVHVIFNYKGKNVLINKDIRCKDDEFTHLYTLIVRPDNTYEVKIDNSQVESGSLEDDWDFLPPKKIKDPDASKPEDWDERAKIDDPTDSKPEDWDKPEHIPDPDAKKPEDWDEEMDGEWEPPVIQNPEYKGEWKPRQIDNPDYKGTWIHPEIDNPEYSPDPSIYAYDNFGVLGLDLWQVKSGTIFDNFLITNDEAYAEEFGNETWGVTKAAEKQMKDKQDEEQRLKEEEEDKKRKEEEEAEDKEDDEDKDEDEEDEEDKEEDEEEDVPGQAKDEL
Description: To determine whether p60 (calreticulin) could directly modulate the binding of nuclear hormone receptors to DNA via the KXFFX^1R [SEQ ID NO:1] sequence, the interaction of the DNA binding domain of recombinant androgen receptor with its hormone responsive element was analyzed by carrying out gel mobility shift assays.
(§1) As described in Rennie et al., 1993, DNA binding domain of recombinant rat androgen receptor was prepared as a GST-fusion protein using the pGEX-3X vector and purified by glutathione-agarose affinity chromatography. p60 (calreticulin) was purified by affinity chromatography on KLGFFKR-sepharose [SEQ ID NO:7], followed by gel electrophoresis as described in detail in Rojiani et al., 1991. […] Recombinant calreticulin (GST-fusion protein) was prepared as described by Baksh and Michalak, 1991. Gel retardation assays were carried out as described by Rennie et al., 1993. To analyze the effect of p60, or recombinant calreticulin, on receptor-DNA binding activity, the AR was pre-incubated with p60 for 30 min at 4° C. To analyze the effects of synthetic peptides, anti-calreticulin antibody, and non-immune IgG on p60 inhibition of AR-ARE binding, the peptide, antibody or IgG were pre-incubated with p60 for 30 min at 4° C. The androgen receptor preparation was then added to these mixtures and further incubated for 30 min at 4° C.
Affinity purified DNA binding domain of the recombinant rat androgen receptor (AR) was pre-incubated with or without the indicated concentrations of purified p60 at 4° C. for 30 min. After this pre-incubation the reaction mixtures were incubated with ^32P-labeled 26 base pair ARE (Rennie et al., 1993) (androgen response element), and analyzed by gel retardation assay. The sequence of the ARE used was [SEQ ID NO:28]:
Amino acids in the KXFFX^1R [SEQ ID NO: 1] sequence were modified. Androgen receptor and calreticulin were incubated in the presence of the modified peptides and allowed to interact with an oligonucleotide containing the androgen response element (the method of this assay is described in Example 3). The interaction was analyzed by gel mobility shaft assay (FIGS. 5A-5C).

[2] = test system: retinoic acid receptor mediated gene transcription (bRARE luciferase) in P19 cells; experiment: RARE-driven luciferase reporter in P19 cells after peptide preincubation; assay type: cell-based, mouse; details: for Luciferase × 10^6: P19 cells, 10^-7 retinoic acid
Description: In order to test whether a peptide based on the calreticulin-binding KXGFFKR [SEQ ID NO:30] sequence modulates retinoic acid induced gene transcription in live cells, the p19 cells were transfected with a reporter vector consisting of a retinoic acid response element fused to the luciferase gene.
Cell culture conditions: Mouse embryonic carcinoma (P19) cell, grown in 60 mm dishes in 7.5% donor calf serum, 2.5% fetal calf serum alpha MEM (Gibco/BRL) were treated with the peptides KLGFFKR [SEQ ID NO:7] or KLRFGFK [SEQ ID NO:29] for three hours or overnight for 20 hours at 37° C., 5% CO2. With few exceptions, KLXFFKR [SEQ ID NO:31] is the peptide sequence specific within the binding domain of all steroid receptors. KLRFGFK [SEQ ID NO:29] is the scrambled peptide of the above sequence. Subsequently each plate was washed four times with serum free alpha MEM to remove excess peptides and replenished with fresh serum containing media. Cells were then transfected by standard calcium phosphate precipitation method (Current Protocols in Molecular Biology 9:1) with 1 microgram bRARE in pTKluc, 1.5 microgram pRSV bgal, 3 microgram pKS (carrier) per 60 mm dish. Following a 16 hour incubation at 37° C. 5% CO2, each plate was washed two times with serum free alphaMEM and replenished with serum containing media supplement with […] retinoic acid (Sigma R2625) and 800 microgram/ml G418 (Gibco 1181-031). Following another 24 hours incubation cells were washed three times with PBS and each 60 mm dish of cells was lysed in 100 microliters of 1 % triton X100, 100 mM KPO4 pH7.8, 1 mM DTT. Cell lysates were stored at −70° C. Prior to luciferase/bgal assays, cell debris were spun out on an Eppendorf microfuge (5415C) at 4° C. full speed for 20 minutes.
Luciferase assay: All reagents were equilibrated to room temperature and each sample was assayed independently. Ten microliters of cell lysate was incubated with 50 microliters of luciferase reagent (Promega E1483) in an Eppendorf tube. Thirty seconds later, the sample was immediately counted in a Beckman scintillation counter (LS6000IC) for one minute using an open window. Standards in the range of 0.001 nanogram to 1.0 nanogram was used to establish the linearity of the assay.
Beta-gal assay: Assay was done in a microtitre plate (Linbro 76-232-05). Ten microliters of cell lysate were mixed with 90 microliters of bgal reagent in 88 mM phosphate buffer, 11 mM KCl, 1 mM MgCl2, 55 mM 2ME, 4.4 mM chlorophenol red b-D-galactopyranoside (BMC 884-308). Incubation period varied from 30 minutes to 2 hours at 37° C. Results were read at 570 nm in an ELISA reader (Dynatech MR5000).

[3] = target: T2, calreticulin as used in the gel mobility shift assays of Examples 7 and 15 (Homo sapiens (Human), UniProt P27797 18-417); experiment: gel mobility shift, PhosphorImager; reversal of calreticulin inhibition of AR binding to its DNA response element; competitor AR
T2 construct: Could be m1 or m2
T2 sequence: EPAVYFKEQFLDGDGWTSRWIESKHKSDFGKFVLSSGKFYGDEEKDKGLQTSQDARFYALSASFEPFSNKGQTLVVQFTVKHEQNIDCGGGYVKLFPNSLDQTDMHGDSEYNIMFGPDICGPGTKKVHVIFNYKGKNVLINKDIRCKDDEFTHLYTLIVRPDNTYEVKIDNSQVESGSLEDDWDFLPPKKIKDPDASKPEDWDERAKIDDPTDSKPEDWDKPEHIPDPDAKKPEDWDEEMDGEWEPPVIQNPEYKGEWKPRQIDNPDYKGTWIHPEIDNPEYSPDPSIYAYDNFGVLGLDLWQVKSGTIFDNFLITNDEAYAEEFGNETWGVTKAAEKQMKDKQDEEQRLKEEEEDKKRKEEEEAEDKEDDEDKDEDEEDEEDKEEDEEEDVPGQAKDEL
Description: as §1, with “To analyze the effects of synthetic peptides, anti-calreticulin antibody, and non-immune IgG on p60 inhibition of AR-ARE binding, the peptide, antibody or IgG were pre-incubated with p60 for 30 min at 4° C.” left out
(§2) This Table relates to the retinoic acid receptors (RAR/RXR) and the androgen receptor (AR). […] The data was quantified using a Phosphormager (Molecular Dynamics).

[4] = target: T2, calreticulin as used in the gel …; experiment: gel mobility shift, PhosphorImager; reversal of calreticulin inhibition of RAR/RXR binding to its DNA response element; competitor RAR/RXR
Description: as §2

[5] = overnight preincubation with 10 micromolar peptide
[6] = overnight preincubation with 50 micromolar peptide
[7] = overnight preincubation with 100 micromolar peptide

Row | Molecule | Effectiveness of binding to calreticulin, in words [1] | % Reversal [3] [%] | % Reversal [4] [%] | also measured
1 | KGFFGR [compound 416] | decreased the ability of peptides to bind calreticulin |  |  | 
2 | KGRFKR [compound 414] | increased the effectiveness of binding to calreticulin |  |  | 
3 | KVAFKR (not fully specified) [compound 427] | decreased the ability of peptides to bind calreticulin |  |  | 
4 | KLGFFKR |  |  |  | Reversal of GST-calreticulin (recombinant calreticulin) inhibition of AR-ARE interaction [1]: Reversal of this inhibition; Reversal of p60 (calreticulin) inhibition of AR-ARE binding [1]: reversed; Effect by itself on the receptor-DNA interaction ([1]; without p60, data not shown): neither KLGFFKR peptide [SEQ ID NO:7], anti-calreticulin antibody, nor non-immune IgG by themselves had any effect; Corrected values luc/bgal [2, 5]: 32.91; Luciferase × 10^6 [2, 5]: 13 × 10^6; Corrected values luc/bgal [2, 6]: 45.15; Luciferase × 10^6 [2, 6]: 20 × 10^6; Luciferase × 10^6 [2, 7]: 28 × 10^6; Luciferase activity (retinoic acid receptor mediated gene transcription), in words ([2]; pre-incubation of P19 cells with peptide): dose-dependent increase in luciferase activity
5 | KLRFGFK [reference compound] |  |  |  | Reversal of p60 (calreticulin) inhibition of AR-ARE binding [1]: much less effective; Corrected values luc/bgal [2, 5]: 42.04; Luciferase × 10^6 [2, 5]: 14 × 10^6; Corrected values luc/bgal [2, 6]: 41.34; Luciferase × 10^6 [2, 6]: 16 × 10^6; Corrected values luc/bgal [2, 7]: 32.26; Luciferase × 10^6 [2, 7]: 14 × 10^6
6 | KVFFKR [compound 285] |  |  |  | Reversal of GST-calreticulin (recombinant calreticulin) inhibition of AR-ARE interaction [1]: can also reverse the inhibition; also recorded: reversed; Reversal of p60 (calreticulin) inhibition of AR-ARE binding [1]: reversed
7 | bovine serum albumin: other protein of similar size, used as control [reference compound] |  |  |  | Effect of protein on AR-ARE (receptor-DNA) complex formation ([1]; protein pre-incubated with AR 30 min at 4° C.): did not have any effect on the nuclear receptor-DNA interaction
8 | KVFAKR [compound 429] | decreased the ability of peptides to bind calreticulin |  |  | 
9 | KVFFKA [compound 430] | decreased the ability of peptides to bind calreticulin |  |  | 
10 | KGFRRR [compound 421] | increased the effectiveness of binding to calreticulin |  |  | 
11 | KGFRKR [compound 415] | increased the effectiveness of binding to calreticulin |  |  | 
12 | KGFFKG [compound 417] | decreased the ability of peptides to bind calreticulin |  |  | 
13 | KGRFRR [compound 420] | increased the effectiveness of binding to calreticulin |  |  | 
14 | GLGFFKR [GLGFFKR peptide] |  | 100 | 45 | 
15 | KLGFFGR [KLGFFGR peptide] |  | 85 | 65 | 
16 | KLGFRKR [KLGFRKR peptide] |  | 6 | 20 | 
17 | KLDFFKR [KLDFFKR peptide] |  | 0 | 73 | 
18 | KLGFFKG [KLGFFKG peptide] |  | 63 | 22 | 
19 | KLGRFKR [KLGRFKR peptide] |  | 10 | 24 | 
20 | KGFFKR (also called 409) [KGFFKR peptide] |  |  | 100 | 
21 | KVFFKR (also called 285; androgen receptor derived peptide) [KVFFKR peptide] |  | 100 |  | 
22 | KLRFGFK (Control) [KLRFGFK scrambled peptide] |  |  | 34 | 
